# Assay results as given in patent US20230365711A1 (Hoffmann-La Roche, published 2023).
# Where a chain is given by its changes, count along the chain named. Names may count otherwise.
# T1: huNABA-avi-his (hybrid protein N-A1-B3-A2: N and A1 domains of human BGP, B3 domain of human CEA, A2 domain … (human, biotinylated at the avi tag (in vivo, co-transfected biotin ligase)))
# T1 construct: also called NABA-avi-his reagent; biotinylated NABA
# T1 chain: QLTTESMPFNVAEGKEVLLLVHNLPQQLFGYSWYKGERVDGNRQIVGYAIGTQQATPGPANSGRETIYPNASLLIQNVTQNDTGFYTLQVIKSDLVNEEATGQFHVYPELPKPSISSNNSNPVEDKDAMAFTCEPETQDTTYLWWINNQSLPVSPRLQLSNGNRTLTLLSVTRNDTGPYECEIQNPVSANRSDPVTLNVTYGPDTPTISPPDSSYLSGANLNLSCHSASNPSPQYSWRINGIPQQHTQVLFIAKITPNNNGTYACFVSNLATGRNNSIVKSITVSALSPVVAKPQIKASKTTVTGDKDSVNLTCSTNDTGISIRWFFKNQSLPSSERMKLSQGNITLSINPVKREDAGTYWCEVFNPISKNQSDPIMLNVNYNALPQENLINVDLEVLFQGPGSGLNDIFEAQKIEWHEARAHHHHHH
# B1: 3E1 (Fab, V domains shown)
# VH: QVQLVQSGSELKKPGASVKVSCKASGYTFTEFGMNWVRQAPGQGLEWMGWINTKTGEATYVEEFKGRFVFSLDTSVSTAYLQISSLKAEDTAVYYCARWDFVDYVEAMDYWGQGTTVTVSS
# VL: DIQMTQSPSSLSASVGDRVTITCKASQNVGTNVAWYQQKPGKAPKLLIYSASYRYSGVPSRFSGSGSGTDFTLTISSLQPEDFATYYCHQYYTYPLFTFGQGTKLEIK
# B2: 2D7 (Fab, V domains shown)
# VH: B1 VH with V102Y, D103W
# VL: B1 VL
# B3: H3 Full (5) 28 (Fab, V domains shown)
# VH: B1 VH with V102F, D103Y, E106Q, A107T
# VL: B1 VL
# B4: H3 Full (5) 8 (Fab, V domains shown)
# VH: B1 VH with V102F, D103E, V105F, E106K, A107T
# VL: B1 VL
# B5: H3 Full (5) 27 (Fab, V domains shown)
# VH: B1 VH with V102S, D103Y
# VL: B1 VL
# B6: H4E9 x 2F1 (bivalent) (antibody, V domains shown)
# VH: B1 VH with V61I, V102Y
# VL: DIQMTQSPSSLSASVGDRVTITCKASAAVGTYVAWYQQKPGKAPKLLIYSASYRKRGVPSRFSGSGSGTDFTLTISSLQPEDFATYYCHQYYTYPLFTFGQGTKLEIKR
# notes: bivalent form of the clone
# B7: H4E9 x 3A1 (antibody, V domains shown)
# VH: B1 VH with V61I, V102Y
# VL: B6 VL with A28N, T31N, Y32N, S50L, Y53N, K55S, R56G
# notes: bivalent form
# B8: 1C8 x 3A1 (antibody, V domains shown)
# VH: B1 VH with V102Y, D103H
# VL: B1 VL with Q27A, T31N, S50L, Y53N, Y55S, S56G
# notes: bivalent form
# B9: 3A1 (bivalent) (antibody, V domains shown)
# VH: B1 VH with V102Y
# VL: B1 VL with Q27A, T31N, S50L, Y53N, Y55S, S56G
# notes: bivalent form of the clone
# B10: H3 Full (5) 8 x 2F1 (antibody, V domains shown)
# VH: B1 VH with V102F, D103E, V105F, E106K, A107T
# VL: B1 VL with Q27A, N28A, N32Y, Y55K, S56R
# notes: bivalent form; copies: 2 + 2
# B11: H3 Full (5) 19 x 2F1 (bivalent) (antibody, V domains shown)
# VH: B1 VH with N35S, F101A, V102F, D103E, E106K, M108L
# VL: B1 VL with Q27A, N28A, N32Y, Y55K, S56R
# notes: bivalent form of the clone; copies: 2 + 2
# B12: 1C8 x 2F1 (bivalent) (antibody, V domains shown)
# VH: B1 VH with V102Y, D103H
# VL: B1 VL with Q27A, N28A, N32Y, Y55K, S56R
# notes: as for B11
# B13: anti-CEA antibody with heavy chain CH1A1E and light chain 2F1 (antibody, V domains shown)
# VH: QVQLVQSGAEVKKPGASVKVSCKASGYTFTEFGMNWVRQAPGQGLEWMGWINTKTGEATYVEEFKGRFTMTTDTSTSTAYMELRSLRSDDTAVYYCARWDFYDYVEAMDYWGQGTTVTVSS
# VL: B6 VL
# B14: anti-CEA antibody with heavy chain CH1A1G and light chain 2F1 (antibody, V domains shown)
# VH: B13 VH with F68V, L83I
# VL: B6 VL
# B15: 1C8 x 2F1 (Fab, V domains shown)
# VH: B1 VH with V102Y, D103H
# VL: B1 VL with Q27A, N28A, N32Y, Y55K, S56R
# notes: also called 1C8 x 2F1 hc/lc, monovalent; copies: 1 + 1
# B16: 3A1 (Fab, V domains shown)
# VH: B1 VH with V102Y
# VL: B1 VL with Q27A, T31N, S50L, Y53N, Y55S, S56G
# notes: also called pAC21 (3A1); 3A1 wt/lc
# B17: antibody with heavy chain CH7A (D99H) and light chain 2F1 (antibody, V domains shown)
# VH: B1 VH with V102Y, D103H
# VL: B6 VL
# notes: Bivalent form
# B18: antibody with heavy chain CH7A (Y98A) and light chain 2F1 (antibody, V domains shown)
# VH: B1 VH with V102A
# VL: B6 VL
# notes: Bivalent form
# B19: antibody with heavy chain CH7A (A103T) and light chain 2F1 (antibody, V domains shown)
# VH: B1 VH with V102Y, A107T
# VL: B6 VL
# notes: Bivalent form
# B20: antibody with heavy chain CH7A (D99Y) and light chain 2F1 (antibody, V domains shown)
# VH: B1 VH with V102Y, D103Y
# VL: B6 VL
# notes: Bivalent form
# B21: antibody with heavy chain CH7A (E102Q) and light chain 2F1 (antibody, V domains shown)
# VH: B1 VH with V102Y, E106Q
# VL: B6 VL
# notes: Bivalent form
# B22: antibody with heavy chain CH7A (V101F) and light chain 2F1 (antibody, V domains shown)
# VH: B1 VH with V102Y, V105F
# VL: B6 VL
# notes: Bivalent form
# B23: pAC19 (2C6) (Fab, V domains shown)
# VH: B1 VH with V102Y
# VL: B1 VL with Q27K, L46P, S50L, R54P, Y55Q, S56I
# B24: L2D2 (Fab, V domains shown)
# VH: B1 VH with V102Y
# VL: B1 VL with Q27H, Y53H
# B25: pAC23 (2F11) (Fab, V domains shown)
# VH: B1 VH with V102Y
# VL: B1 VL with N28I, V29A, G30S, S50W
# Biological target: T1, huNABA-avi-his (hybrid protein …)
# Experiment: Biacore, column Affinity, CDR-H3 rows; antigen not named on the sheet, NABA-avi-his per paragraph 230
row,Kd,Binder
1,1890 nM,B1
2,746 nM,B2
3,81 nM,B3
4,51 nM,B4
5,132 nM,B5

# Biological target: T1, huNABA-avi-his (hybrid protein …)
# Experiment: Biacore on immobilized NABA-avi-his; Bivalent Affinity
Kd,koff,kon,Binder
0.452 nM,0.000191 s⁻¹,423000 M⁻¹ s⁻¹,B6
0.55 nM,0.000136 s⁻¹,246000 M⁻¹ s⁻¹,B7
0.888 nM,0.000257 s⁻¹,289000 M⁻¹ s⁻¹,B8
1.5 nM,0.000364 s⁻¹,242000 M⁻¹ s⁻¹,B9
0.28 nM,0.000271 s⁻¹,993000 M⁻¹ s⁻¹,B10
0.16 nM,0.000284 s⁻¹,1.76e+06 M⁻¹ s⁻¹,B11
0.66 nM,0.000636 s⁻¹,968000 M⁻¹ s⁻¹,B12

# Biological target: T1, huNABA-avi-his (hybrid protein …)
# Experiment: Proteon SPR, antibody analyte on biotinylated NABA (Neutravidin chip)
row,Kd,Binder
1,20 nM,B13
2,6.1 nM,B14

# Biological target: T1, huNABA-avi-his (hybrid protein …)
# Experiment: Biacore, Fab on immobilized NABA-avi-his; column Monovalent Affinity
Kd,koff,kon,Binder
51 nM,0.0014 s⁻¹,27300 M⁻¹ s⁻¹,B4
128 nM,0.0087 s⁻¹,68100 M⁻¹ s⁻¹,B15
250 nM,0.0117 s⁻¹,46800 M⁻¹ s⁻¹,B16

# Biological target: T1, huNABA-avi-his (hybrid protein …)
# Experiment: Proteon SPR, antibody analyte on biotinylated NABA (Neutravidin chip); column Ka (M)
# Excerpt: (§1) Shown in FIG. 22 are Proteon (Biacore) sensorgrams obtained for the binding of the CDR-H3 antibody variants to the CEA antigen-harbouring chimeric protein NABA. […] The affinity matured precursor clone 5HFF12 and the parental antibody CH7A were included for direct comparison. All antibodies tested in this assay had 2F1 as the light chain. […] The relative affinity of each, measured in the bivalent form, is as follows: 5HFF12>CH7A (Y98A/D99Y)>CH7A (Y98A)>CH7A>CH7A (E102Q)>CH7A (D99Y)>CH7A (D99H)>CH7A (A103T)>CH7A (V101F)>CH7A (W95Y).
row,kon,Binder
1,86500 M⁻¹ s⁻¹,B17
2,132000 M⁻¹ s⁻¹,B18
3,25100 M⁻¹ s⁻¹,B19
4,114000 M⁻¹ s⁻¹,B20
5,198000 M⁻¹ s⁻¹,B21
6,59400 M⁻¹ s⁻¹,B22

# Biological target: T1, huNABA-avi-his (hybrid protein …)
# Experiment: as above
# Remark: another data set of the same source
row,kon,Binder
1,21100 M⁻¹ s⁻¹,B13
2,73000 M⁻¹ s⁻¹,B14

# Biological target: T1, huNABA-avi-his (hybrid protein …)
# Experiment: Biacore, column Affinity, CDR-L1 and CDR-L2 rows; antigen not named on the sheet, NABA-avi-his per paragraph 230
row,Kd,Binder
1,250 nM,B16
2,700 nM,B23
3,2260 nM,B24
4,290 nM,B25

# Biological target: T1, huNABA-avi-his (hybrid protein …)
# Experiment: Proteon SPR, antibody analyte on biotinylated NABA (Neutravidin chip)
# Remark: another data set of the same source
# Excerpt: as §1
row,Kd,Binder
1,2.25 nM,B17
2,0.52 nM,B18
3,2.87 nM,B19
4,1.73 nM,B20
5,1.63 nM,B21
6,3.18 nM,B22
